# Source: the nanobody polyreactivity screen of Harvey et al. (2022)
# Assay: yeast display, Sf9 membrane polyspecificity reagent, FACS + sequencing; frameworks hold sequencing errors
# Procedure, shortened: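 A synthetic nanobody library was expressed on Saccharomyces cerevisiae BJ5465 by galactose induction for 36–48 hours. The library was stained for 1 hour at 4 °C with 10% biotinylated, detergent-solubilized Sf9 membrane reagent and enriched with streptavidin microbeads before FACS. Low and high (top ~1%) gates were set on anti-HA fluorescence for expression and streptavidin fluorescence for reagent binding, and each polyreactivity label reflects the gate of origin.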
sequence,measurement,value
QVQLVESGGGLVQARGSLRLSFAASGGIFYSYAMGRYRQAPGKEREFVAAIRRSGGRTYYADSVKGRFTISRDNAKNTVYLQMNSLKPEDTAVYYCAADGWYSGGHDYWGQGTQVTVSS,polyreactivity (PSR sort gate),high polyreactivity
QVQLVESGGGLVQAGGSLRLSCAASGYIFDRYAMGWYRQAPGKERELVAAISSDGSTYYADSVKGRFTISRDNAKNTVYLQMNSLKPEDTAVYYCAADGGESAWGGYDYWGQGTQVTVSS,polyreactivity (PSR sort gate),low polyreactivity
QVQLVESGGGLVQAGGSLRLSCAASGSIISRTVMGWYRQAPGKEREFVATISRSGGITYYADSVKGRFTISRDNAKNTVYLQMNSLKPEDTAVYYCAAGKFVSFPSHYGYWGQGTQVTVSS,polyreactivity (PSR sort gate),high polyreactivity
QVQHVESGGGIVQAGGSLRLICAASGFPYARYAMGWNRQAPGNERELVAAITSAGSTSYADSVKGRFTISRYNAKNTDYFHMNSLKPEDTAVYYCAAVQYNQAYHYWGQGTQVTVSS,polyreactivity (PSR sort gate),high polyreactivity
QVQLVESGGGLVQAGGSLRLSCAASGRTFGTNAMGWYRQAPGKERELVASIDLSADSTYYADSVKGRFTISRDNAKNNFYLQMNSLKPEDTAVYYCNKDGYPWPPNLDYWGQGTQVTVSS,polyreactivity (PSR sort gate),low polyreactivity
QVQLVESGGGLVQAGGSLRLSCAASGSTFPWYDMGWYRQAPGKERELVADISGGTRTYYADSVKGRFTISRDNAKNTVYLQMNSLKPEDTAVYYCAVGYYWNEPLYWYGDFDYWGQGTQVTVSS,polyreactivity (PSR sort gate),high polyreactivity
QVQLVESGGGLVQAGGSLRLSCAASGSIFSYYAMGWYRQAPGKERELVAAITGGGTTNYADSVKGRFTISRDNAKNTDYLQMNSLKPEDTAVYYCAADEPDVFAPGLYYWGQGTQVTLSS,polyreactivity (PSR sort gate),low polyreactivity
QVQLVESGGGLVQAGGSLRLSCAASGRTFYRNAMGWYRQAPGKERELVAAISSRGGSTYYADSVKGRFTISRDNAKNSVYLQMNSLKPEDTAVYYCAATYGYGGDYDYWGQGTQVTVSS,polyreactivity (PSR sort gate),high polyreactivity
QVQLVESGGGLVQAGGSLRLSCAASGSIFASNAMGWYRQAPGKERELVAAITSSGRTKYADSVKGRFTISRDNAKNTVYFQMNSLKPEDTAVYYCAAVYYTYFGRYDYWGQGTQVTVSS,polyreactivity (PSR sort gate),high polyreactivity
QVQLVESGGGLVQAGGSLRLSCAASGSTFFYYAMGWYRQAPGKERELVARITRGGGSTNYADSVKGRFTISRDNAKNTVYLQMNSLKREDTAVYYCAKRRKVTYDYWGQGTQVTVSS,polyreactivity (PSR sort gate),high polyreactivity
QVQIVESGGGLVQAGGSLRLTCAASGSIFPDYAMGWYRQAPGKERELVASISWDGGSTYYADSVKGRFTISRDNAKNTVYLQMNSLKPEDTAVYYCATELLVGGGFTVDYWGQGTQVTVSS,polyreactivity (PSR sort gate),low polyreactivity
QVQLVESGGVLVQAGGSLRLSCAASGSTFYFNTMGWYRQAPGKERELVAAITATGASTYYADSVKGRFTISRDIAKNTVYLQMNSLKPEDTAVYYCNVRLRIRSGYWGQGTQVTVSS,polyreactivity (PSR sort gate),high polyreactivity
QVQLVESGGGLVQAGGSLRLSCAASGSTFYRYAMGWYRPAPGKERELVAAISSSGGSTYYADSVKGRFTISRDNAKNTVYLQMNSLKPEDTAVYYGNADVHSQYDYWGQGTQVTVSS,polyreactivity (PSR sort gate),low polyreactivity
QVQLVESGGGLVQAGGSLRLSCAASGSTLYFYAMGWYRQAPGKERELVASISGTGGRTDYADSVKGRFTISRDNAKNTVYLQMNSLKPEDTAVYYCAARGLVYQSNRYYGYRDYYYWGQGTQVTVSS,polyreactivity (PSR sort gate),high polyreactivity
QVQLVESGGGLVQAGGSLRLSCAASGSLFGYNAIGRYRQARGKERELVAAITGSGGSTYYADSVKGRFTLSRDNAKNTVYFQMNSLKPEDTAVYYCADDLFGGPLGYWDYDYWGQGTQVTVSS,polyreactivity (PSR sort gate),low polyreactivity
QVQLVESGGGLVQAGGSLRLSCAASGFTFRDNAMGWYRQAPGKEWELVAAITWDGGSTYYADSVKGRFTISRDNAKNTVYLQMNSLKPEDTAVYYCAASRYYPRYFKRYYYWGQGTQVTVSS,polyreactivity (PSR sort gate),high polyreactivity
QVQLVESGGGLVQAGGSLRLSCAASGLIFFYYAMGWYRQAPGKERELVATINLNGGSTYYADSVKGRFTISRDNAKNSVYLQMNSLKPEDTAGYYCAAAGTKYYARYYYWGQGTQVTVSS,polyreactivity (PSR sort gate),high polyreactivity
QVQLVESGAGLVQAGGSLRLSCAASGSIFVYYTMGCYRQAPGKEREFVAAISFSGGSTYADSVKGRFTISRDNAKNTVYLQMNSLKPEDTAVYYCNADRWLYTPSKFVEMDFWGQGTQVTVSS,polyreactivity (PSR sort gate),low polyreactivity
QVQLVESGGGLVQAGGSLRLSSAASGFTFAYYAMGWYRQAPGKERELVAAITRGGGRTFYADSVKGRFTISRDNAKNTVYLQMNSLKPEDTAVYYCAAVKDTTNSRGYGYWGQGTQVTVSS,polyreactivity (PSR sort gate),high polyreactivity
QVQLVESGGGLVQAGGSLRLSCADSGGIFNTYAMGWYRQAPGKEREFVAAISRRGGGTYYADSVKGRFTISRDNAKNTVYLQMNSLKPEDTAVYYCAAKRFHEHGYWGQGTQVTVSS,polyreactivity (PSR sort gate),high polyreactivity
QVQLVESGGGLVQAGGSLRLSCAASGNIFSYYAIGSYRHAPRKEREFVAANDWNGGTTYYADSVKGRFTISRDNAKNTVYLQMNSLKPEDTAVYYCAAEYGTWYIPEGEYWGQGTQVTVSS,polyreactivity (PSR sort gate),high polyreactivity
QVQLVESGGGLVQAGGSLRLSCAASGSIFKANAMGWYRQAPGKERELVATITSSGTRTYYADSVKGRFTISRDNAKNTVYLQMNSLKPEDTAVYYCNARAYPYQRGRYGYWGQGTQVTVSS,polyreactivity (PSR sort gate),high polyreactivity
LVQLQESGGGLVQAGGSLRLSCAASGTISPGGYMAWYRQAPCTERELVASINVGGSTNYADSVKGRFTISRDNAKNTVYLQMNSLKPEDNALYYCAVWGRNRLQLSYWGQGTQVTVIS,polyreactivity (PSR sort gate),low polyreactivity
QVQLVESGGGLVQAGGSLRLSCAASGRTFSNYAMGWYRQAPGKEREFVAGIRYNGGSTYYADSVKGRFTISRDNAKNTVYLQMNSLKPEDTAVYYCAAERWFYRSKFDYWGQGTQVTVSS,polyreactivity (PSR sort gate),high polyreactivity
QVQLVESGGGLVQAGGSLRLSCAPSGFTFVFYAMGWYRQAPGKERELVAAISSRGGSTYYADSVKGRFTISRDNAKNTVYLQMNSLKPEDTAVYYCNVVSTYWTTYEEYYWGQGTQVTVSS,polyreactivity (PSR sort gate),high polyreactivity
QVQLVESGGGLVQAGGSLRLSCAASGFTFGSNTMGWYRQAPGKERELVAVITWSGGSTYYADSVKGRFTISRDYAKNTVYLQMNSLKPEDTAVYSCAAEATSPLTWFDYWGQGTQVTVSS,polyreactivity (PSR sort gate),low polyreactivity
QVQLVESGGGLVQAGGSLRLSCAASGSIFGFYAMGWYRQAPGKERELVAAITTGGSTYYADSVKGRFTISRDNAKNNVYFQMISLKPEDTAVYYCAKERWFPYERNDYWGQGTLVTVSS,polyreactivity (PSR sort gate),low polyreactivity
QVQLVESGGGLVQAGGSLRLSCAASGFIFGPNAMGWYRQAPGKERELVAAITLSGGSTYYADSVKGRFTISRDNAKNTVYLQMNSLKPEDTAVYYCATTYYHNYLLYGYWGQGTQVTVSS,polyreactivity (PSR sort gate),low polyreactivity
QVQLVQSGGGLVQAGGSLRLSCAASGSIFGYYAMGWYRQAPGKERELVAVITSVATTNYADSVKGRFTISRDNAKNTVYLQMNSLKPEDTAVYYCAARPQVKRGRYGYWGQGTQVTVSS,polyreactivity (PSR sort gate),low polyreactivity
QVQLVDSGGGLVQAGGSLRLSCAASGSTFDGNTMGWYRQAPGKERELVATITNSGGNTYYADSVKGRFTISRDNAKNTVYLQMNSLKPEDTAVYYCNARRTSWRRLGNFYYWGQGTQVTVSS,polyreactivity (PSR sort gate),high polyreactivity
QEQLHESGGGLVQAGGSLRLSCAASGTISYAGPIGWDRQAPGKAREFVAGIGVGSNTNYADSVKGRFTIIRDNAKNTVYLQMNSLKPEDTAVYYCAVGGYAPLGRPYWGQGTQVTVSS,polyreactivity (PSR sort gate),low polyreactivity
QVQLVESGGGLVQAGGSLRLSCAASGGTFSYYAMGWYRQAPGKERELVAAITYSGDRTYYADSVKGRFTISRDNAKNTVFLQMNSLKPEDTAVYYCNAVRGSWYGYYYWGQGTQVTVSS,polyreactivity (PSR sort gate),high polyreactivity
QVHLVESGGGLVQAGGSLRLSCAASGFTFYSYAMGWYRPPPGKEREFVAAITIGGGSTNYADSVKGRFTISRDIAKNTVYLQMNSLKPEDTAVYYCNVDYTLHFGYWGQGTQVTVSS,polyreactivity (PSR sort gate),low polyreactivity
HCQLVESGGVLVQEGGSLRISCAASGYTFTPYAMGWYRQAPGKEREFVAGITWRTGRTYYADSVKGRFTISRDIAKNTVYLQMISLKPEDTAVYYCNKYHQRRYYWSYDYWGQGTQVTVSS,polyreactivity (PSR sort gate),low polyreactivity
QVQLVESGGGLVQAGGSLRLSCAASGSIFSSNAMGWYRPAPGKERELVAAISSGGTTNYADSVKGRFTISRDNAKHTVYLQMNSLKPEDTAVYYCAKRGPSRPAEYDYWGQGTQVTVSS,polyreactivity (PSR sort gate),low polyreactivity
QVQLVESGGGLVQAGGSLRLSSAASGGIFWYYTMGWYRQAPGKERELVAAISWSGGRTYYADSVKGRFTISRDNAKNTVYLQMNSLKPEDTAVYYCAATFRGVLGWYHYEYWGQGTQVTVSS,polyreactivity (PSR sort gate),high polyreactivity
QVQLVESGGGLVQAGGSLRLICAASGNIFVYYALGWYRQAPGKERELVAAITSDVSTYYADSVKGRFTISRDNAKNTVYLQLNSLKPEVTAVYYCATTGYGSYVIYWGQGTQVTVSS,polyreactivity (PSR sort gate),low polyreactivity
QVHLVESGGGLVQAGGSLRLSCAASGRIIRYNAMGWYRQAPGKERELDAAITRSGGSTYYADSVKGRFTISRDNAKNTVYLQMNSLKPEDTGVYYCAKVQNGQWSTSGVPGDYQYNYWGQATQVTVSS,polyreactivity (PSR sort gate),high polyreactivity
QVQLVESGGGLFQAGGSLRITCAASGITFSYNAMGWYRQAPGKVRELVAGITWSGGSTYYADSVTGRFTISRDNAKNTVYLQMYSVKREDTAVYYCAASRSFPGYGLYYYWGQGTQVTVSS,polyreactivity (PSR sort gate),low polyreactivity
QVQLQDSGGGLVQAGGSLRLICAASVTIFSYSDLGWYRQAPGKERKFVAGIGFGSNSNFADSVRGRFTISRDNAKNTVYLQMNSLKPEDTAVYYCAAVWFDYSTHRYWGQGTKVTVSS,polyreactivity (PSR sort gate),high polyreactivity
QVQLVESGGGLVQAGGSLRLSCAASGIIFEYYTMGWYRQAPGNERELVASITYDGDSTYYADSVKGRFTISRDHAKNTVYLQINSLKPEDTAVYFCAADYYYVYSSFGHYYWGQGTQVTVSS,polyreactivity (PSR sort gate),low polyreactivity
QVQLVESGGGLVQAGGSLRLSCAASGSIFAYYAMGWYRQAPGKERELVAAISSGGGTYYADSVKGRFTISRDNAKNTVYLQMNSLKPEDTAVYYCARRYRAHYQYLYDYWGQGTQVSVSS,polyreactivity (PSR sort gate),low polyreactivity
QVQLVESGGGLVQAGGSLRLSCAASGRIFERYAMGWYRQAPGKERELVAGISISGGGTYYADSVKGRFTISRDNAKNTFYLQMNSLNPEDTAVYYCSATFPREEYGYWGQGTQVTVSS,polyreactivity (PSR sort gate),low polyreactivity
